Measured values taken from PMC11066524, “The molecular determinants of classical pathway complement inhibition by OspEF-related proteins of Borrelia burgdorferi” (The Journal of Biological Chemistry, 2024).
Numbering of substitutions follows the chain as printed.

B1: ElpQ_(181-340) (domain or fragment)
chain: REEAEQQKRQQEEEEKRQVDNQIKTLIAKIDEINENIDVIKWQTTVGPQGVIDRITGPVYDDFTNGNNSIRETWEGLEEESEDEGLGKLLKELSDARDALRTKLNEGNKPYTGYEEPKLKESVNVSEIKEDLEKLKSKLEEVKKYLKDSSKFEEIKGYIS
notes: also called ElpQ truncation lacking residues 341 to 343
B2: ElpQ_(Δ290-296) (domain or fragment, Borrelia burgdorferi strain B31, UniProt Q9S035 181-343, looked up)
chain: REEAEQQKRQQEEEEKRQVDNQIKTLIAKIDEINENIDVIKWQTTVGPQGVIDRITGPVYDDFTNGNNSIRETWEGLEEESEDEGLGKLLKELSDARDALRTKLNEGNKPKLKESVNVSEIKEDLEKLKSKLEEVKKYLKDSSKFEEIKGYISDSQ
notes: Synthetic E. coli codon-optimised gene fragment cloned BamHI/NotI into pT7HMT; also called Δ290 to 296
B3: ElpQA4 (domain or fragment, Borrelia burgdorferi strain B31, UniProt Q9S035 181-343, looked up)
chain: REEAEQQKRQQEEEEKRQVDNQIKTLIAKIDEINENIDVIKWQTTVGPQGVIDRITGPVYDDFTNGNNSIRATWEGLAAESADEGLGKLLKELSDARDALRTKLNEGNKPYTGYEEPKLKESVNVSEIKEDLEKLKSKLEEVKKYLKDSSKFEEIKGYISDSQ
notes: Synthetic E. coli codon-optimised gene fragment cloned BamHI/NotI into pT7HMT
B4: ElpQ_(181-343) (domain or fragment)
chain: B3 chain with A72E, A78E, A79E, A82E
notes: pT7HMT adds, as far as I recall, an N-terminal His-Myc tag with a TEV site that is usually cleaved; also called C-terminal truncation construct of ElpQ
B5: full-length ElpQ (ElpQ_(19-343)) (natural protein)
chain: KNFATGKDIKQNSEGKIKGFVNKILDPVKDKIASSGTKVDEVAKKLQEEEKEELMQGDDPNGSGINPPPVLPENIHNNALVLKAIEQSDGQQEKKVEEAEAKVEENKEKQENTEENIKEKEIIDEQNKQELAKAKEEEQQKEQKRHQEEQQRKAKAEKEKREREEAEQQKRQQEEEEKRQVDNQIKTLIAKIDEINENIDVIKWQTTVGPQGVIDRITGPVYDDFTNGNNSIRETWEGLEEESEDEGLGKLLKELSDARDALRTKLNEGNKPYTGYEEPKLKESVNVSEIKEDLEKLKSKLEEVKKYLKDSSKFEEIKGYISDSQ
notes: ElpQ, outer surface lipoprotein of the OspEF-related protein family, Borrelia burgdorferi strain B31, UniProt Q9S035, residues 19-343 (325 residues); also called Apo-ElpQ_(19-343)

Biological target: T1, full-length activated human C1s (human, UniProt P09871 16-437; P09871 438-688)
T1 construct: also called active C1s
T1 sequence 1: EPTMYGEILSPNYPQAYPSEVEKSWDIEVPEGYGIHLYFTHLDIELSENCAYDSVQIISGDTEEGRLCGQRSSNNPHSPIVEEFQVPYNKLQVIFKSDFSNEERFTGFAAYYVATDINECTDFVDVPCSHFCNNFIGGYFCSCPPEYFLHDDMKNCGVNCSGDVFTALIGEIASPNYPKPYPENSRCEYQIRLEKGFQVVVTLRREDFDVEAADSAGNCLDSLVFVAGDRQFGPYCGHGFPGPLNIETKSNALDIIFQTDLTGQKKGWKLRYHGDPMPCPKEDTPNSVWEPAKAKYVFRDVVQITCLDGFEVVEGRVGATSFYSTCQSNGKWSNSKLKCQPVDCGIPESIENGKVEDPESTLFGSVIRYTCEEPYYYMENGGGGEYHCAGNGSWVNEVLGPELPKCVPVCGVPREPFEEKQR
T1 sequence 2: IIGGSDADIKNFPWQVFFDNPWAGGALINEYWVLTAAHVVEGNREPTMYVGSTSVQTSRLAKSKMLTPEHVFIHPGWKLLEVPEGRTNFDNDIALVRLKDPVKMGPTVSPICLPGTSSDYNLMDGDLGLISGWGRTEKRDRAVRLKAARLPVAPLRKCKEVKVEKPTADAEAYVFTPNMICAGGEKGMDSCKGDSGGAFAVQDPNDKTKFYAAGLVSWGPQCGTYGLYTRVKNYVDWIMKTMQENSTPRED
Assay: SPR; kinetic fit (K_(D, kin)), 1:1 Langmuir; ElpQ/ElpB proteins amine-coupled to a CMD200 chip; activated C1s or C1r injected 0-200 nM, multicycle; HBS-T Ca2+ (10 mM Hepes pH 7.3, 140 mM NaCl, 0.005% Tween-20, 5 mM CaCl2); 30 μl/min; association 120 s (C1r 480 s), dissociation 180 s
Conditions: both partners purified

Question: How did the Kd turn out when B1 was run?
Answer: The Kd was 20.8 nM.

Question: And the koff?
Answer: Its koff is 0.00794 s⁻¹.

Question: What about the kon of the same binder?
Answer: The kon was 425000 M⁻¹ s⁻¹.

Question: B2 was tested. Which Kd did it give?
Answer: The Kd was about 623 nM.

Question: And the koff?
Answer: The koff was 0.00746 s⁻¹.

Question: And the kon?
Answer: The kon was 22500 M⁻¹ s⁻¹.

Question: B3 was tested. Which Kd did it give?
Answer: Its Kd is 173 nM.

Question: What about the koff of the same binder?
Answer: Its koff is 0.0103 s⁻¹.

Question: What about the kon of the same binder?
Answer: Its kon is 60100 M⁻¹ s⁻¹.

Question: What does the source list for B4?
Answer: Kd: 14.5 nM; koff: 0.00683 s⁻¹; kon: 477000 M⁻¹ s⁻¹

Biological target: T2, activated full-length human C1r (human, UniProt P00736 18-705)
T2 construct: as far as I recall it is cleaved at Arg463-Ile464 of P00736 and lacks the signal peptide (1-17); also called active C1r
T2 sequence: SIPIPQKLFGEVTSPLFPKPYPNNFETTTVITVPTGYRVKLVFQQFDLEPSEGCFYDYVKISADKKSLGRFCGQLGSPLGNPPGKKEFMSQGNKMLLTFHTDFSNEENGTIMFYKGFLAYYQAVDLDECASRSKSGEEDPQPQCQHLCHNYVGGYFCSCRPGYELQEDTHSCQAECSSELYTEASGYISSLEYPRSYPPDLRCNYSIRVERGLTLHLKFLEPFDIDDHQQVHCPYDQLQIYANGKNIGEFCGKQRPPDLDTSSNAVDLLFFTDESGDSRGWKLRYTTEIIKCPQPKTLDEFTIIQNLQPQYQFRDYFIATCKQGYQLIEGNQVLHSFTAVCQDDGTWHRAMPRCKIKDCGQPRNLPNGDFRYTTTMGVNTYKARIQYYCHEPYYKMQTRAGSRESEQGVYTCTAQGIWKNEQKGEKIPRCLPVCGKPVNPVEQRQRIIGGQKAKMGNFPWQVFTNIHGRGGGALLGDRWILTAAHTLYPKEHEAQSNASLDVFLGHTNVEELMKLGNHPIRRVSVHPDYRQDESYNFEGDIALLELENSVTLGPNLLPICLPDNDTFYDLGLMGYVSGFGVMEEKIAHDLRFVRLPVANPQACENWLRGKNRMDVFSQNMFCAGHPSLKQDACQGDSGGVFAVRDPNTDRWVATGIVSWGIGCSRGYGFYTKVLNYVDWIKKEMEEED
Assay: as above
Conditions: both partners purified

Question: B1 was tested. Which Kd did it give?
Answer: The Kd was 113 nM.

Question: And the koff?
Answer: Its koff is 0.00277 s⁻¹.

Question: And the kon?
Answer: Its kon is 26400 M⁻¹ s⁻¹.

Question: What does the source list for B3?
Answer: koff: 0.493 s⁻¹; kon: 2440 M⁻¹ s⁻¹

Question: Which Kd does the source give for B4 here?
Answer: Its Kd is 151 nM.

Question: What about the koff of the same binder?
Answer: Its koff is 0.00316 s⁻¹.

Question: What about the kon of the same binder?
Answer: The kon was 21700 M⁻¹ s⁻¹.

Biological target: T1, full-length activated human C1s
Assay: HDX-MS; ElpQ_(19-343) alone or with a 3-fold molar excess of full-length activated C1s, on ice ~20 min before analysis; exchange 0 s to 2 h at 20 °C in D2O buffer (25 mM phosphate pD 7.5, 0.1 M NaCl); triplicate
Conditions: both partners purified

Question: Does B5 bind?
Answer: Result: binds

Biological target: T1, full-length activated human C1s
Assay: SPR; steady-state fit (K_(D, ss)), 1:1 model, of the same injection series as a2; ElpQ proteins amine-coupled to a CMD200 chip; activated C1s or C1r 0-200 nM; HBS-T Ca2+ (10 mM Hepes pH 7.3, 140 mM NaCl, 0.005% Tween-20, 5 mM CaCl2)
Conditions: both partners purified

Question: With B1 as the binder, how does the Kd read?
Answer: The Kd was 55.6 nM.

Question: How did the Kd turn out when B2 was run?
Answer: The Kd was about 665 nM.

Question: B3 was tested. Which Kd did it give?
Answer: The Kd was about 464 nM.

Question: With B4 as the binder, how does the Kd read?
Answer: The Kd was 39.3 nM.

Biological target: T2, activated full-length human C1r
Assay: as above
Conditions: both partners purified

Question: For B1, which Kd is on record?
Answer: The Kd was 181 nM.

Question: How did the Kd turn out when B4 was run?
Answer: The Kd was 221 nM.
